This assay has as its target Fc receptor on monocytes of human PBMC effector cells (human). Kind of assay: cell-based or functional assay.

Substance “DAC HYP (daclizumab, humanized IgG1 anti-CD25 monoclonal antibody made by the high yield process in NS0 cells)” returned a maximal ADCC activity on KIT225/K6 cells, against ZENAPAX DAC and DAC Penzberg of 30 to 40 % lower.

Source of the values: patent US20150203583A1.
